In the supplement of paper PMC9170038:

Legend:
MS2 coat protein [1] = assay: apparent KD of MS2 coat protein, switch ON state; designed switch direction (-1 OFF switch, 1 ON switch): 1; higher = weaker reporter binding; details: FMN input: 0 or 200 uM; Eterna round: R93 (includes R88 designs)
Method in brief: (§1)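 The buffer was 100 mM Tris-HCl pH 7.5 with 80 mM KCl and 4 mM MgCl2, used without or with constant ligand. In it, RNA switches transcribed on-chip from Illumina sequencing clusters were titrated with SNAP-549-labelled MS2 coat protein in twofold steps from 0.7 or 1.5 nM to 3 µM. Apparent KD for each design is the median of its normalised cluster binding-curve fits.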

MS2 coat protein [2] = assay: apparent KD of MS2 coat protein, switch OFF state (with FMN for OFF switches, without FMN for ON switches); designed switch direction (-1 OFF switch, 1 ON switch): 1; higher = weaker reporter binding; details: FMN input: 0 or 200 uM; Eterna round: R93 (includes R88 designs)
Method in brief: as §1

Row | Sequence | apparent KD of MS2 coat protein (MS2 coat protein [1]) [µM] | apparent KD of MS2 coat protein (MS2 coat protein [2]) [µM]
1 | AAAAAACAUGAGGAUCACCCAUGUGCAAAAUUCGCAGGAUAUUCUUCUCUUAAAUGAGAGGGAGAAGGGUGUAAAA [Nob's Hobby 24 - Jieux - Same State 1] | 0.0182 | 0.0433
2 | AAAAACAUAGUUCAGGAUAUGGUAAUAGUCACAUGAGGAUCACCCAUGUUCAUUUAUAUGAGCGAUCAGAAGGGAGGUAAAAAAA [Mat - Same state - Malcolm Mod - D115] | 0.124 | 0.125
3 | AAAAGACAUGAGGAUCACCCAUGUAAAAACAUAGGAGGAUAUGUCGUGAAAAAAGACUUGGCAGAAGGCCUUUGUC [SS1 - 45] | 0.0481 | 0.0764
4 | AAAAGACAUGAGGAUCACCCAUGUCAAAACGUAGGAGGAUAUGUCGUGAAAAAAGACUUGGCAGAAGGCCUGUGUC [SS1 - 42] | 0.0154 | 0.0195
5 | AAAAGACAUGAGGAUCACCCAUGUCAAGACGUAGGAGGAUAUGUCGUGAAAAAAGACUUGGCAGAAGGCCUGUGUC [SS1 - 41] | 0.015 | 0.0214
6 | AAAAUAUAAAGGAAGGAUAUCCAAAGGACUACAUGAGGAUCACCCAUGUAAAGAAAGAAUAAGUGGGAGAAGGUCCAAAUAAUAA [Designing denovo 31] | 0.027 | 0.0683
7 | AAAGAAAAACUAGAGGAUAUCCGAGUGGUAACAUGAGGAUCACCCAUGUGAAGAAAGGAGCGUGAGGAGAAGGCUAGAAGAAAAA [JL Nando mod 24] | 0.011 | 0.146
8 | AAAGACAUAGUUCAGGAUAUGGUAAUAGUCACAUGAGGAUCACCCAUGUUCAUUUAUAUGAGCGAUCAGAAGGGAGGUAAAAAAA [SameState2 Malc#15] | 0.182 | 0.244
9 | AAAGUACAUGAGGAUCACCCAUGUUGAAAAAAUCGAGGAUAUGCGAAAAAAAAAAAAAAAGCAGAAGGUGAAAAAA [I 'NO' this state well 2] | 0.0244 | 0.0386
10 | AAAGUACAUGAGGAUCACCCAUGUUGGAACAAAGCAGGAUAUGUACAAAAGGAAAUAAAUACAGAAGGGCUAAGAA [Same State #2] | 0.02 | 0.0329
11 | AAAUAAAGGACUGAGGAUAUACCACAUGAAACAUGAGGAUCACCCAUGUUGAAAAACAAAGGGUGGUAGAAGGUAGUCCACAAAC [Same State 2.5a ( so lets mod hyphema)] | 0.0172 | 0.0293
12 | AAAUAAAUGACUAAGGAUAUCUCUGAGAAAACAUGAGGAUCACCCAUGUAAUAAUAAAAAGGGUGAGAGAAGGUAGUCAACAAAC [Same State 2.1 (Pariah 4 -changed stack on 9nt hairpin)] | 0.018 | 0.068
13 | AAAUAUAAAAGAUAGGAUAUACUAAAAUAAACAUGAGGAUCACCCAUGUAAAAAAAAAAACUCAUGUAGAAGGAUCAAAUAUAAA [ss2 8th] | 0.0334 | 0.0381
14 | AACAAUCUAUCUGAGGAUAUAUGUCAAAAGACAUGAGGAUCACCCAUGUAAAAACAUGAAAAAUAAUAGAAGGCAGAUAGAUUGA [SS2: 1140] | 0.0599 | 0.0524
15 | AACAAUCUAUCUGAGGAUAUCAAGUCAAAGACAUGAGGAUCACCCAUGUUGCAGGAAACUGCUCUUGAGAAGGCAGAUAGAUUGA [SS2: 1130] | 0.00984 | 0.0135
16 | AACAAUCUAUCUGAGGAUAUGUGUCGAAAGACAUGAGGAUCACCCAUGUAAAAACAUGAAAAAUCACAGAAGGCAGAUAGAUUGA [SS2: 1144] | 0.0593 | 0.144
17 | AACGUGACGACAUAGGAUAUGUACACACGUACAUGAGGAUCACCCAUGUGACUAGUAAUCGUGUGGCAGAAGGGUGAAGUCUCGA [Anzasousra] | 0.0214 | 0.0314
18 | AAGAAACAUGAGGAUCACCCAUGUAAAAUAAACACAGGAUAUGCGAAAAGAAACAAAGAAGCAGAAGGGUGAAGAA [Mat - Same State 1 - Tesla mod - 56] | 0.0169 | 0.0362
19 | AAGAAACAUGAGGAUCACCCAUGUAAGAUAAACACAGGAUAUGCGAAAAGAACAAAAGAAGCAGAAGGGUGAAGAA [Mat - Same State 1 - Tesla mod - D145] | 0.0254 | 0.0424

Row | Sequence | apparent KD of MS2 coat protein (MS2 coat protein [1]) [µM] | apparent KD of MS2 coat protein (MS2 coat protein [2]) [µM]
20 | AAGAAACAUGAGGAUCACCCAUGUAAGAUAAACACAGGAUAUGCGAAAGAAAUAAAUAAAGCAGAAGGGUGAAGAA [Mat - Same State 1 - Tesla mod - D148] | 0.0224 | 0.0445
21 | AAGAAACAUGAGGAUCACCCAUGUAGAAAUAUGGGAGGAUAUACGAAGACGAAAGUCGAAGUAGAAGGCCUAAGAA [Mat - Same State 1 - Meechl mod - D131] | 0.0151 | 0.0719
22 | AAGAAACAUGAGGAUCACCCAUGUCGAGAGAGACGAGGAUAUCUGAAUCGAUUAGAUUACGGAGAAGGCGUGAAAA [Same State 1.2 (Same State of Confusion2 - minimal change )] | 0.0183 | 0.0304
23 | AAGAAACAUGAGGAUCACCCAUGUGAUAAUAUGGGAGGAUAUACAAAGACGAAAGUCGAAGUAGAAGGCCUAUGAA [Garnet 43] | 0.0368 | 0.062
24 | AAUAAACAUGAGGAUCACCCAUGUGAAAAUAUGGGAGGAUAUAGGAAAAAAAAAAAAAAACUAGAAGGCCCAAAAA [SS! 1 MT 12] | 0.0753 | 0.138
25 | AAUAACUAUAACUAGGAUAUCGGAAAUAAGACAUGAGGAUCACCCAUGUAAUAAGACAAAAUAUACGAGAAGGAGUAGGGUGAAA [JR_SS002_Sub012] | 0.0612 | 0.0532
26 | AAUAGACAUGAGGAUCACCCAUGUAGAAUUAUGGGAGGAUAUACAAAGACGAGAGUCAGAGUAGAAGGCCUAGGAC [salish99-ss1-151] | 0.0207 | 0.054
27 | AAUAUAUUAAGUGAGGAUAUCAAGAAAAAAACAUGAGGAUCACCCAUGUGGGAAACACAAUAGGGUGAGAAGGUACUUAAUAUAU [Samwise Clockwise 18 - Jieux - Same State 2] | 10.2 | 0.00808
28 | AAUAUAUUAUUUAAGGAUAUCAUAGGAAACACAUGAGGAUCACCCAUGUGGGAGACUUGGACGGGUGAGAAGGUGGAUAAUAUAU [Samwise Clockwise 37 - Jieux - Same State 2] | 0.0192 | 0.0207
29 | AAUCCAACUAGUCAGGAUAUCAGGCGUAAGACAUGAGGAUCACCCAUGUACUUAGUACAAGUAACUGAGAAGGGACAGGGUGACC [JR_SS002_Sub409] | 0.0754 | 0.0755
30 | ACAAAACAUGAGGAUCACCCAUGUCAAGCUAAUCAAGGAUAUGGGAGCGGUCCGGUGCGAUCAGAAGGUGAUUAGA [Gecelear] | 0.099 | 0.0532
31 | ACAAAACAUGAGGAUCACCCAUGUCAGAAAUGGCAAGGAUAUAGAAAACAAAAACAAAAACUAGAAGGUGCAAAAC [Meechl SS1 R2 m3] | 0.0848 | 0.154
32 | AGAAAAUAUGGGUAGGAUAUAUAAAGAGAAACAUGAGGAUCACCCAUGUAAAGACGAGAGUCAAAAUAGAAGGACUAAAGAAAGAA [Meechl MS2 SS2 2] | 0.0862 | 0.151
33 | AGAAAUAAAAGAGAGGAUAUCCAAAAGAAAACAUGAGGAUCACCCAUGUAGACGAAAGUCAAAUGGGAGAAGGCUCAAAAUAAAG [80% More Helter Skelter 2 + Hairpin] | 0.0614 | 0.0987
34 | AGAAAUAAAAUGGAGGAUAUCCAAAAGAAAACAUGAGGAUCACCCAUGUAAAAGAAAAUAAAAUGGGAGAAGGCCAAAAAUAAAG | 0.023 | 0.0472
35 | AGAAGACAUGAGGAUCACCCAUGUGGGAAUAUGGGAGGAUAUACAAAGACGAGAGUCAGAGUAGAAGGCCUAGGAA [salish99-SS1-091(!)] | 0.033 | 0.132
36 | AGAAGACAUGAGGAUCACCCAUGUGGGAAUAUGGGAGGAUAUACAAAGACGAGAGUCAGAGUAGAAGGCCUAGGCC [salish99-ss1-110] | 0.0498 | 0.131
37 | AGCCGCACUAUACAGGAUAUCACAAUAUCGACAUGAGGAUCACCCAUGUGACUGGCACCAGUCGGUGAGAAGGGUGAAGUGCGGC [Raarati] | 0.0906 | 0.421
38 | AGGAAACAUGAGGAUCACCCAUGUAAAAAAGUGGGAGGAUAUACUAGAAGAAACAAAAUAGUAGAAGGCCUAAAAA [75%, Ex sub1, 32] | 0.00999 | 0.108
